Variants at the floor of the assay were thinned out.
Experiments:
biotinyl-Val-oxazolone = experiment: self-aminoacylation, catalytic enhancement (BVO) (fold over background); higher = more active; k-Seq, kA / k0A0; sequences stand for … in GGGAAUGGAUCCACAUCUACGAAUUC…UUCACUGCAGACUUGACGAAGCUG
In short: (§1)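 Mutagenized RNA pools (0.43 μM; 21-nt variable region) were treated with 2–1250 μM of each biotinyl-aminoacyl-oxazolone. Conditions were 50 μL HEPES/NaCl/KCl/MgCl2/CaCl2 buffer, 5% acetonitrile, pH 6.9–7.0, room temperature, 90 minutes. Catalytic enhancement, the median kA relative to the uncatalyzed rate, was derived from streptavidin capture, qPCR and Illumina sequencing.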

biotinyl-Trp-oxazolone = experiment: self-aminoacylation, catalytic enhancement (BWO) (fold over background); higher = more active; k-Seq, kA / k0A0; sequences stand for … in GGGAAUGGAUCCACAUCUACGAAUUC…UUCACUGCAGACUUGACGAAGCUG
In short: as §1

biotinyl-Leu-oxazolone = experiment: self-aminoacylation, catalytic enhancement (BLO) (fold over background); higher = more active; k-Seq, kA / k0A0; sequences stand for … in GGGAAUGGAUCCACAUCUACGAAUUC…UUCACUGCAGACUUGACGAAGCUG
In short: as §1

biotinyl-Met-oxazolone = experiment: self-aminoacylation, catalytic enhancement (BMO) (fold over background); higher = more active; k-Seq, kA / k0A0; sequences stand for … in GGGAAUGGAUCCACAUCUACGAAUUC…UUCACUGCAGACUUGACGAAGCUG
In short: as §1

biotinyl-Phe-oxazolone = experiment: self-aminoacylation, catalytic enhancement (BFO) (fold over background); higher = more active; k-Seq, kA / k0A0; sequences stand for … in GGGAAUGGAUCCACAUCUACGAAUUC…UUCACUGCAGACUUGACGAAGCUG
In short: as §1

biotinyl-Ile-oxazolone = experiment: self-aminoacylation, catalytic enhancement (BIO) (fold over background); higher = more active; k-Seq, kA / k0A0; sequences stand for … in GGGAAUGGAUCCACAUCUACGAAUUC…UUCACUGCAGACUUGACGAAGCUG
In short: as §1

Row | Sequence | self-aminoacylation (biotinyl-Val-oxazolone) | self-aminoacylation (biotinyl-Trp-oxazolone) | self-aminoacylation (biotinyl-Leu-oxazolone) | self-aminoacylation (biotinyl-Met-oxazolone) | self-aminoacylation (biotinyl-Phe-oxazolone) | self-aminoacylation (biotinyl-Ile-oxazolone)
1 | AUUCACCUAGUUUAUCGGGUG [Fam2.2 aminoacylation ribozyme variant] | 2.61 | 4.61 | 3.48 | 3.75 | 21.2 | 2.39
2 | AUUCACCUAUCUCAUCGGGUG [Fam2.2 aminoacylation ribozyme variant] | 2.09 | 3.46 | 4.13 | 3.1 | 19.4 | 2.18
3 | AUUCACCUAUGUAAUCGGGUG [Fam2.2 aminoacylation ribozyme variant] | 2.91 | 5.74 | 7.44 | 5.17 | 36.4 | 3.11
4 | AUUCACCUAUGUCAUAGGGUG [Fam2.2 aminoacylation ribozyme variant] | 1.15 | 0.856 | 1.75 | 1.46 | 1.08 | 1.36
5 | AUUCACCUAUGUCAUCAGGUG [Fam2.2 aminoacylation ribozyme variant] | 1.64 | 2.33 | 2.75 | 2.39 | 8.58 | 1.72
6 | AUUCACCUAUGUCAUCGGUUG [Fam2.2 aminoacylation ribozyme variant] | 0.872 | 0.892 | 0.919 | 0.874 | 0.455 | 0.902
7 | AUUCACCUAUGUCAUCUGGUG [Fam2.2 aminoacylation ribozyme variant] | 1.62 | 2.01 | 2.51 | 2.04 | 1.9 | 1.79
8 | AUUCACCUAUGUUAUCGGGUG [Fam2.2 aminoacylation ribozyme variant] | 3.43 | 5.74 | 7.49 | 5.62 | 41.3 | 3.19
9 | AUUCACCUCAGUCAUCGGGUG [Fam2.2 aminoacylation ribozyme variant] | 4.58 | 6.63 | 8.93 | 7.34 | 56.6 | 4.75
10 | AUUCACCUCGCUCAUCGGGUG [Fam2.2 aminoacylation ribozyme variant] | 2.74 | 3.01 | 3.61 | 3.42 | 13.5 | 2.57
11 | AUUCACCUCGGCCAUCGGGUG [Fam2.2 aminoacylation ribozyme variant] | 5.61 | 6.78 | 7.44 | 6.8 | 56.7 | 4.23
12 | AUUCACCUCGGUCACCGGGUG [Fam2.2 aminoacylation ribozyme variant] | 4.43 | 8.88 | 6.77 | 6.37 | 41.9 | 5
13 | AUUCACCUCGGUCAUGGGGUG [Fam2.2 aminoacylation ribozyme variant] | 2.96 | 4.7 | 4.31 | 3.94 | 28 | 2.57
14 | AUUCACCUCGGUCAUUGGGUG [Fam2.2 aminoacylation ribozyme variant] | 2.91 | 4.34 | 5.53 | 4.91 | 35.5 | 3.14
15 | AUUCACCUCGGUCCUCGGGUG [Fam2.2 aminoacylation ribozyme variant] | 4.23 | 7.07 | 7.19 | 6.33 | 53.2 | 4.17
16 | AUUCACCUCGGUGAUCGGGUG [Fam2.2 aminoacylation ribozyme variant] | 4.6 | 6 | 5.47 | 4.66 | 28.3 | 4.21
17 | AUUCACCUGGGUCAUCGAGUG [Fam2.2 aminoacylation ribozyme variant] | 2.59 | 3.74 | 4.18 | 3.54 | 3.55 | 2.4
18 | AUUCACCUGGGUCAUUGGGUG [Fam2.2 aminoacylation ribozyme variant] | 4.03 | 4.15 | 6.07 | 4.52 | 31.1 | 3.51
19 | AUUCACCUGGGUCUUCGGGUG [Fam2.2 aminoacylation ribozyme variant] | 5.01 | 5.25 | 7.31 | 5.53 | 38.6 | 4.14
20 | AUUCACCUGGUCAUCGAGUGA [Fam2.1 aminoacylation ribozyme variant] | 3.58 | 8.2 | 5.93 | 5.88 | 9.12 | 3.55
21 | AUUCACCUUAGUCAUCGGGUG [Fam2.2 aminoacylation ribozyme variant] | 3.83 | 5.66 | 7.94 | 6.02 | 38.8 | 3.73
22 | AUUCACCUUGGGCAUCGGGUG [Fam2.2 aminoacylation ribozyme variant] | 3.69 | 5.41 | 4.33 | 3.99 | 22.9 | 3.58
23 | AUUCACCUUGGUAAUCGGGUG [Fam2.2 aminoacylation ribozyme variant] | 2.35 | 3.98 | 5.19 | 3.95 | 24.4 | 2.23
24 | AUUCACCUUGGUCACCGGGUG [Fam2.2 aminoacylation ribozyme variant] | 4.2 | 5.4 | 6.72 | 5.58 | 27.5 | 4.82
25 | AUUCACCUUGGUCAUCCGGUG [Fam2.2 aminoacylation ribozyme variant] | 6.17 | 7.75 | 11.5 | 8.93 | 60.2 | 6.27
26 | AUUCACCUUGGUCAUCGCGUG [Fam2.2 aminoacylation ribozyme variant] | 8.42 | 14.1 | 18.2 | 15.3 | 117 | 8.37

Row | Sequence | self-aminoacylation (biotinyl-Val-oxazolone) | self-aminoacylation (biotinyl-Trp-oxazolone) | self-aminoacylation (biotinyl-Leu-oxazolone) | self-aminoacylation (biotinyl-Met-oxazolone) | self-aminoacylation (biotinyl-Phe-oxazolone) | self-aminoacylation (biotinyl-Ile-oxazolone)
27 | AUUCACCUUGGUCAUCGGCUG [Fam2.2 aminoacylation ribozyme variant] | 2.19 | 1.66 | 1.7 | 1.52 | 7.58 | 1.64
28 | AUUCACCUUGGUCAUCGGGCG [Fam2.2 aminoacylation ribozyme variant] | 2.77 | 2.93 | 3.24 | 2.81 | 3.77 | 2.74
29 | AUUCACCUUGGUCAUCGGGUG [Fam2.2 aminoacylation ribozyme variant] | 4.97 | 7.43 | 9.96 | 7.9 | 55.7 | 4.71
30 | AUUCACCUUGGUCAUCGGGUU [Fam2.2 aminoacylation ribozyme variant] | 2.08 | 2.14 | 2.38 | 1.84 | 8.05 | 1.67
31 | AUUCACCUUGGUCAUGGGGUG [Fam2.2 aminoacylation ribozyme variant] | 3.36 | 4.27 | 6.08 | 4.32 | 26.8 | 2.91
32 | AUUCACCUUGGUCAUUGGGUG [Fam2.2 aminoacylation ribozyme variant] | 2.17 | 3.18 | 3.56 | 2.9 | 21.4 | 2.11
33 | AUUCACCUUGGUCUUCGGGUG [Fam2.2 aminoacylation ribozyme variant] | 4.25 | 5.01 | 6.07 | 4.81 | 37.3 | 3.75
34 | AUUCACGCAGGUCAUCGGGUG [Fam2.2 aminoacylation ribozyme variant] | 4.58 | 5.58 | 4.77 | 4.55 | 41.6 | 3.54
35 | AUUCACGUAGAUCAUCGGGUG [Fam2.2 aminoacylation ribozyme variant] | 3.9 | 4.96 | 5.42 | 5.1 | 29.6 | 4.08
36 | AUUCACGUAGGUCAUCGGUUG [Fam2.2 aminoacylation ribozyme variant] | 1.24 | 0.72 | 1.35 | 1.23 | 4.98 | 1.2
37 | AUUCACGUAGGUCAUCGUGUG [Fam2.2 aminoacylation ribozyme variant] | 1.28 | 1.79 | 1.82 | 1.57 | 7.45 | 1.15
38 | AUUCACGUAGGUCGUCGGGUG [Fam2.2 aminoacylation ribozyme variant] | 3.81 | 2.44 | 2.35 | 2.48 | 9.34 | 2.61
39 | AUUCACGUAGUUCAUCGGGUG [Fam2.2 aminoacylation ribozyme variant] | 3.45 | 4.72 | 3.88 | 3.49 | 21.9 | 3.07
40 | AUUCACGUAUGUCAUCGGGUG [Fam2.2 aminoacylation ribozyme variant] | 5.58 | 7.42 | 9.38 | 8.47 | 73.5 | 5.2
41 | AUUCACGUCGGUCAUCGGGUG [Fam2.2 aminoacylation ribozyme variant] | 5.95 | 6.46 | 5.21 | 5.7 | 54.3 | 3.75
42 | AUUCACGUGGGUCAUCGGGUG [Fam2.2 aminoacylation ribozyme variant] | 8.26 | 9.93 | 7.84 | 9.61 | 94 | 5.57
43 | AUUCACGUUGGUCAUCGGGUG [Fam2.2 aminoacylation ribozyme variant] | 8 | 10.1 | 12.2 | 12.5 | 121 | 6.91
44 | AUUCACUCAGGUCAUCGGGUG [Fam2.2 aminoacylation ribozyme variant] | 4.16 | 4.79 | 6.71 | 4.85 | 41.3 | 3.48
45 | AUUCACUUAGGCCAUCGGGUG [Fam2.2 aminoacylation ribozyme variant] | 2.65 | 3.26 | 3.9 | 3.04 | 16 | 2.53
46 | AUUCACUUAGGUCACCGGGUG [Fam2.2 aminoacylation ribozyme variant] | 3.33 | 5.19 | 5.15 | 4.86 | 28.2 | 3.47
47 | AUUCACUUAGGUCAUCCGGUG [Fam2.2 aminoacylation ribozyme variant] | 4.72 | 6.84 | 8.78 | 6.26 | 43.4 | 4.64
48 | AUUCACUUAGGUCAUCGGGUU [Fam2.2 aminoacylation ribozyme variant] | 1.65 | 1.47 | 1.69 | 1.78 | 6.63 | 1.59
49 | AUUCACUUCGGUCAUCGGGUG [Fam2.2 aminoacylation ribozyme variant] | 5.73 | 7.68 | 10.1 | 7.48 | 55.8 | 5.12
50 | AUUCAGCGAGGUCAUCGGGUG [Fam2.2 aminoacylation ribozyme variant] | 5.33 | 7.06 | 7.8 | 6 | 44 | 4.46
51 | AUUCAGCUAGCUCAUCGGGUG [Fam2.2 aminoacylation ribozyme variant] | 3.41 | 3.74 | 3.86 | 3.07 | 20.2 | 2.69

Source: the supplement of paper PMC9233669
